Values of other authors in paper PMC3050594.
Where two headings read alike, the source gives them in different places.

Legend:
[1] = target: RSV F glycoprotein (Human respiratory syncytial virus) (UniProt P03420)
[2] = target: RSV F glycoprotein (Human respiratory syncytial virus) (UniProt P03420); remark: listed apart in the source

Substance	Kd [1] [nM]	Kd [2] [nM]
motavizumab	0.035	
palivizumab		1.4
